± gives the standard error. This sample holds only a part of the variants without activity.
B1: glmS ribozyme (parent)
chain: AUAAAAGCGCCAGAACUACAGAAAUGUAGUUGACGAGGAGGAGGUUUAUCGAAUUUUCGGCGGAUGCCUCCAAA

Legend:
Conditions in all cases: with glucosamine-6-phosphate
glucosamine-6-phosphate [1] = variants of: B1; assay: self-cleavage kobs at 40 uM GlcN6P; higher = faster cleavage; RNA array
Procedure, shortened: (§1)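 Tiles of sequenced MiSeq chips were imaged over ~14 h at 37 °C. On them, barcoded ribozyme variants had been transcribed in situ by E. coli RNA polymerase and were tracked via a hybridised Cy3 probe while glucosamine-6-phosphate (40 μM to 10 mM) in HEPES/KCl/Mg(OAc)2 buffer flowed in. Per-tile medians, normalised to baseline and to non-cleaving reference variants, were fit to one- or two-exponential decays for kobs, and weighted Michaelis–Menten fits gave kcat and KM.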

glucosamine-6-phosphate [2] = variants of: B1; assay: self-cleavage kobs at 640 uM GlcN6P; higher = faster cleavage; RNA array
Procedure, shortened: as §1

glucosamine-6-phosphate [3] = variants of: B1; assay: self-cleavage kobs at 10000 uM GlcN6P; higher = faster cleavage; RNA array
Procedure, shortened: as §1

glucosamine-6-phosphate [4] = variants of: B1; assay: self-cleavage kobs at 2500 uM GlcN6P; higher = faster cleavage; RNA array
Procedure, shortened: as §1

glucosamine-6-phosphate [5] = variants of: B1; assay: self-cleavage kobs at 160 uM GlcN6P; higher = faster cleavage; RNA array
Procedure, shortened: as §1

| Variant | self-cleavage kobs at 40 uM GlcN6P (glucosamine-6-phosphate [1]) [s⁻¹] | self-cleavage kobs at 640 uM GlcN6P (glucosamine-6-phosphate [2]) [s⁻¹] | self-cleavage kobs at 10000 uM GlcN6P (glucosamine-6-phosphate [3]) [s⁻¹] | self-cleavage kobs at 2500 uM GlcN6P (glucosamine-6-phosphate [4]) [s⁻¹] | self-cleavage kobs at 160 uM GlcN6P (glucosamine-6-phosphate [5]) [s⁻¹] |
| --- | --- | --- | --- | --- | --- |
| A36U C61A C67U | 5.22e-05 ± 2.3e-05 |  |  |  |  |
| A39C G62A | < 1e-05 | < 1e-05 | < 1e-05 |  |  |
| C34U G41A C50U C68U | < 1e-05 |  |  | < 1e-05 |  |
| G38U A53C | < 1e-05 | < 1e-05 |  | < 1e-05 | < 1e-05 |
| A36G U56A | < 1e-05 | < 1e-05 |  |  |  |
| G37C U45G | < 1e-05 | < 1e-05 |  |  | < 1e-05 |
| G35A C50A G51A | < 1e-05 | < 1e-05 |  | < 1e-05 |  |
| G37C G44U | < 1e-05 | < 1e-05 |  |  |  |
| G37C G44A | < 1e-05 | < 1e-05 | < 1e-05 |  | < 1e-05 |
| A36C A48G | < 1e-05 |  | < 1e-05 |  |  |
| A39C A48U G59U | < 1e-05 |  | < 1e-05 |  |  |
| G35U G37A | < 1e-05 | < 1e-05 |  | < 1e-05 |  |
| G35C A48G C50A | < 1e-05 |  |  |  |  |
| G38A A52U C71U | < 1e-05 |  | < 1e-05 |  |  |
| A39C U69G | < 1e-05 | < 1e-05 | < 1e-05 |  |  |
| G35U C67G C71A | < 1e-05 |  |  |  |  |
| A36G U45G G51U U54C U56A C68A | < 1e-05 |  |  |  |  |
| G38C U65G | < 1e-05 | < 1e-05 |  |  | < 1e-05 |
| G38C U65C | < 1e-05 | < 1e-05 | < 1e-05 |  | < 1e-05 |
| G35C G66C | < 1e-05 | < 1e-05 | < 1e-05 | < 1e-05 | < 1e-05 |
| G35C G66A | < 1e-05 |  | < 1e-05 | < 1e-05 |  |
| G37A U45C C58U C61G | < 1e-05 |  |  |  |  |
| G37C C68A | < 1e-05 |  | < 1e-05 |  |  |
| C34U U65C | < 1e-05 | < 1e-05 | < 1e-05 | < 1e-05 | < 1e-05 |

| Variant | self-cleavage kobs at 40 uM GlcN6P (glucosamine-6-phosphate [1]) [s⁻¹] | self-cleavage kobs at 640 uM GlcN6P (glucosamine-6-phosphate [2]) [s⁻¹] | self-cleavage kobs at 10000 uM GlcN6P (glucosamine-6-phosphate [3]) [s⁻¹] | self-cleavage kobs at 2500 uM GlcN6P (glucosamine-6-phosphate [4]) [s⁻¹] | self-cleavage kobs at 160 uM GlcN6P (glucosamine-6-phosphate [5]) [s⁻¹] |
| --- | --- | --- | --- | --- | --- |
| C34U U65A | < 1e-05 | < 1e-05 | < 1e-05 |  | < 1e-05 |
| G37C G38C G40U U55A | < 1e-05 |  |  | < 1e-05 |  |
| G38A C58U U69C | < 1e-05 |  | < 1e-05 |  |  |
| A36C G41U G51A G60U | < 1e-05 | < 1e-05 |  | < 1e-05 |  |
| G38C G41A | < 1e-05 | < 1e-05 | < 1e-05 | < 1e-05 | < 1e-05 |
| G35A U45C | < 1e-05 | < 1e-05 | < 1e-05 | < 1e-05 |  |
| G38U G41C G43A | < 1e-05 |  |  |  |  |
| G35A U56G | < 1e-05 | < 1e-05 | < 1e-05 |  |  |
| G37A A52U G59A G60A | < 1e-05 |  |  |  |  |
| G35C G40U A64U | < 1e-05 |  |  | < 1e-05 | < 1e-05 |
| G35A C50G C71U | 0.000138 ± 3.5e-05 |  | 0.000191 ± 3.6e-05 | 8.9e-05 ± 3.1e-05 |  |
| G35A U45A C61A G62C | < 1e-05 |  |  |  |  |
| C34U U69A | 0.000116 ± 2.4e-05 | 0.00034 ± 0.00012 |  |  |  |
| C34U C61A C67U | 0.00014 ± 3.8e-05 | 0.000388 ± 0.00011 | 0.000236 ± 6.1e-05 | 5.38e-05 ± 2.6e-05 |  |
| A36C U69G | 4.49e-05 ± 1.6e-05 | 0.000391 ± 9.8e-05 | 3.45e-05 ± 1e-05 | 0.0001 ± 2e-05 | 0.000114 ± 3.7e-05 |
| A39C U49A | < 1e-05 |  | < 1e-05 |  | < 1e-05 |
| G38C U55A G63U | < 1e-05 | < 1e-05 |  | < 1e-05 |  |
| G35U G43U U54A | < 1e-05 |  | < 1e-05 |  |  |
| G38U G40U | < 1e-05 |  | < 1e-05 |  |  |
| G35C U56G C58A U69A | < 1e-05 |  |  | < 1e-05 | < 1e-05 |
| G35U U54A | < 1e-05 | < 1e-05 |  | < 1e-05 | < 1e-05 |
| G35C U57A | < 1e-05 | < 1e-05 |  | < 1e-05 | < 1e-05 |
| C34U G51U | < 1e-05 | < 1e-05 |  |  | < 1e-05 |
| G38U C50U G51C U69A | 8.35e-05 ± 3.9e-05 |  |  |  |  |

| Variant | self-cleavage kobs at 40 uM GlcN6P (glucosamine-6-phosphate [1]) [s⁻¹] | self-cleavage kobs at 640 uM GlcN6P (glucosamine-6-phosphate [2]) [s⁻¹] | self-cleavage kobs at 10000 uM GlcN6P (glucosamine-6-phosphate [3]) [s⁻¹] | self-cleavage kobs at 2500 uM GlcN6P (glucosamine-6-phosphate [4]) [s⁻¹] | self-cleavage kobs at 160 uM GlcN6P (glucosamine-6-phosphate [5]) [s⁻¹] |
| --- | --- | --- | --- | --- | --- |
| A36U A39U C50U C61G U65A | < 1e-05 |  | < 1e-05 |  |  |
| G35C C50U G51C | < 1e-05 | < 1e-05 | < 1e-05 | < 1e-05 | < 1e-05 |
| C34U G51U U54C U57G | < 1e-05 |  |  | < 1e-05 |  |
| A36G G63A C67G | < 1e-05 |  | < 1e-05 |  |  |
| A39C G41A | < 1e-05 | < 1e-05 | < 1e-05 |  | < 1e-05 |
| G35U U47A C50G C70U | 0.000411 ± 0.00012 |  | 0.000429 ± 0.00017 |  |  |
| G35A U56C C58U | < 1e-05 |  | < 1e-05 |  |  |
| G38A U49C | < 1e-05 |  |  | < 1e-05 |  |
| G38U C61A C67U | 8.86e-05 ± 3e-05 |  | 8.02e-05 ± 2.6e-05 |  |  |
| G37A C50U | < 1e-05 |  |  | < 1e-05 | < 1e-05 |
| G38U U54G | < 1e-05 |  |  |  |  |
| G38U C50A C67G | 8.67e-05 ± 3.1e-05 |  | 0.000115 ± 3.2e-05 |  |  |
| A39C U65G C70G | < 1e-05 | < 1e-05 | < 1e-05 |  | < 1e-05 |
| G38U A48C C71G | < 1e-05 |  | < 1e-05 |  |  |
| G37C A42U C70A | < 1e-05 |  |  |  |  |
| G38U G51C | < 1e-05 | < 1e-05 |  | < 1e-05 |  |
| G35U G51A U54G | < 1e-05 |  | < 1e-05 |  |  |
| A36C G44A | < 1e-05 | < 1e-05 | < 1e-05 | < 1e-05 | < 1e-05 |
| G38U G43C U47C A53U U55A G59C | < 1e-05 |  |  |  |  |
| G37U G60C | < 1e-05 | < 1e-05 |  |  | < 1e-05 |
| G38A G43U | < 1e-05 | < 1e-05 | < 1e-05 |  | < 1e-05 |
| G38A G43A | < 1e-05 | < 1e-05 | < 1e-05 |  |  |
| G35A C70U | < 1e-05 | < 1e-05 | < 1e-05 | < 1e-05 | < 1e-05 |
| G38U U45G | < 1e-05 | < 1e-05 |  |  |  |

| Variant | self-cleavage kobs at 40 uM GlcN6P (glucosamine-6-phosphate [1]) [s⁻¹] | self-cleavage kobs at 640 uM GlcN6P (glucosamine-6-phosphate [2]) [s⁻¹] | self-cleavage kobs at 10000 uM GlcN6P (glucosamine-6-phosphate [3]) [s⁻¹] | self-cleavage kobs at 2500 uM GlcN6P (glucosamine-6-phosphate [4]) [s⁻¹] | self-cleavage kobs at 160 uM GlcN6P (glucosamine-6-phosphate [5]) [s⁻¹] |
| --- | --- | --- | --- | --- | --- |
| G35C A36G G37A A39G U65A | < 1e-05 |  | < 1e-05 |  |  |
| A39C C61A | < 1e-05 | < 1e-05 | < 1e-05 | < 1e-05 | < 1e-05 |
| A36U A48U | < 1e-05 |  | < 1e-05 | < 1e-05 | < 1e-05 |
| C34U G37A | < 1e-05 |  | < 1e-05 | < 1e-05 |  |
| G35A U45A C67U | < 1e-05 |  | < 1e-05 |  |  |
| G37A G51A U55G | < 1e-05 |  | < 1e-05 |  |  |
| G38A G41A G63C | < 1e-05 |  |  |  |  |
| C34U A52G | < 1e-05 |  | < 1e-05 |  | < 1e-05 |
| G35C C67A | < 1e-05 | < 1e-05 | < 1e-05 |  | < 1e-05 |
| G37A U54A | 7.84e-05 ± 1.8e-05 |  | 0.00478 ± 0.00082 |  |  |
| G35C C61U | < 1e-05 | < 1e-05 | < 1e-05 | < 1e-05 | < 1e-05 |
| A36G U49G | < 1e-05 | < 1e-05 |  |  |  |
| A36U U47G C70G | 6.62e-05 ± 2.4e-05 |  | 4.91e-05 ± 1.4e-05 |  |  |
| G38A A48U | < 1e-05 | < 1e-05 | < 1e-05 |  |  |
| C34U G59A | < 1e-05 | < 1e-05 |  | < 1e-05 |  |
| G37A G40C A48U G63A | < 1e-05 |  |  |  |  |
| G37U G40U U45C | < 1e-05 |  | < 1e-05 |  |  |
| C34U G60U | < 1e-05 | < 1e-05 | < 1e-05 | < 1e-05 | < 1e-05 |
| A36C U49C U65A | < 1e-05 |  | < 1e-05 |  |  |
| A36G G41C G43C A48G | < 1e-05 |  | < 1e-05 | < 1e-05 |  |
| A36C G43U | < 1e-05 | < 1e-05 | < 1e-05 | < 1e-05 |  |
| G35C U65C | < 1e-05 | < 1e-05 | < 1e-05 | < 1e-05 | < 1e-05 |
